The text below walks through data of patent US20260092100A1 (ICOSAVAX, published 2026).

Experiment [1] deals with T1, hMPV F protein on hMPV/A virus (human metapneumovirus, subtype A, UniProt Q6WB98 19-539). Description: cell-based or functional assay.
The target in experiment [2] is T1, hMPV F protein on hMPV/A virus. Put plainly: cell-based or functional assay. The source holds these as a separate data set.
Experiment [3] concerns the target T2, hMPV033 antigen (ectodomain 1-472 of the UT-A CL-28 hMPV F mutant fused to I53-50A) (human metapneumovirus, A strain).
T2 construct: A 6-Gly linker replaces the F1/F2 cleavage site; The stabilising mutations T127C, N153C, A185P, V231I, L219K, G294E, T365C and V463C are already in the entry; A GS linker and I53-50A follow; also called hMPV033 F protein; I53-50A-hMPV033
T2 chain: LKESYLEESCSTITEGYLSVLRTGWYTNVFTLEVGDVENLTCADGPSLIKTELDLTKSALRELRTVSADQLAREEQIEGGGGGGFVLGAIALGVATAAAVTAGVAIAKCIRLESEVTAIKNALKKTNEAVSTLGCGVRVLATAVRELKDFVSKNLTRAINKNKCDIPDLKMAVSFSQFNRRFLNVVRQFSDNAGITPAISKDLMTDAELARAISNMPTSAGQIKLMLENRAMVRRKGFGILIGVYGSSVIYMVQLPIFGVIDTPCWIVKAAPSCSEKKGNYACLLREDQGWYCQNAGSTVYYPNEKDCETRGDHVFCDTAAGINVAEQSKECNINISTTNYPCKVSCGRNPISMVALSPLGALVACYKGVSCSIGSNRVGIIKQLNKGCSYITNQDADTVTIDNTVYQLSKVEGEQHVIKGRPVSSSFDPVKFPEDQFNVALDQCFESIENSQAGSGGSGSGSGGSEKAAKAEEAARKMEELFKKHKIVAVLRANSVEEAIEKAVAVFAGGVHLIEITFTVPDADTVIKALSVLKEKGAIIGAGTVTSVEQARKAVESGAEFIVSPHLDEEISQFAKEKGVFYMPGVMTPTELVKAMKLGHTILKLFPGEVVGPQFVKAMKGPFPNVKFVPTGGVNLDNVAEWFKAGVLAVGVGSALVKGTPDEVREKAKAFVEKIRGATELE
Put plainly: Octet biolayer interferometry: mouse antibody captured on Protein G biosensors, CompA-hMPV033 (panel title 'Pre Fusion hMPV-F') at 10 µg/mL in solution, 120 s association and 120 s dissociation.

Experiment [4] addresses T3, DS-Cav1 (RSV control) (UniProt P03420 26-513).
T3 construct: also called RSV F protein; RSV F
Put plainly: Octet biolayer interferometry, bottom panel titled 'anti-DS-Cav1-CompA specificity'; format and concentrations not given.

The target in experiment [5] is T2, hMPV033 antigen (ectodomain 1-472 of …). Description: summary of characterisation.
The target is the same in experiment [6]. Put plainly: BLI (Octet). In general terms: In BLI a coated tip is dipped into the sample, and binding shifts an interference pattern.
Experiment [7] concerns the target T3, DS-Cav1 (RSV control). Description: Octet biolayer interferometry, bottom panel titled 'anti-DS-Cav1-dn5B specificity'; format and concentrations not given.
Experiment [8] has as its target T3, DS-Cav1 (RSV control). Put plainly: Octet biolayer interferometry, bottom panel titled 'anti-DS-Cav1-CompA specificity'; format and concentrations not given. The source holds these as a separate data set.

B1: 13E10 (mouse) (antibody, V domains shown)
VH: EVKLVESGGGLVQPGGSLSLSCAASGFTFTDYYMNWVRQPPGKALEWLGFIRNKDNGYTTEYSASVKGRFTISRDNSQSILYLQMNALRAEDSATYYCTRYYFGYDGDYFDYWGQGTTLTVSS
VL: EIVLTQSPTTMAASPGEKITITCSASSSISSNYLHWYQQKAGFSPKLLIYRTSNLASGVPARFSGSGSGTSYSLTIGTMEAEDVATYYCQQGSSLPRTFGGGTKLEIK
notes: Mouse IgG1 / kappa; also called 13E10 mIgG
B1: in experiment [1], the “IC50, final serum dilution” value amounted to 0.195 mg/L; the “IC50, original serum dilution” value worked out at 0.781 mg/L; the “hMPV/A RL Bx Titer (Log 2), microneutralization assay” value is 8 log2. The “hMPV/A neutralization assay titer, supernatant” value in experiment [2] was above 5 log2. Moreover, the binding result in experiment [3] is listed as “binds”. For the same molecule, in experiment [4], the binding result is given as “no binding”.

B2: 13E10 hIgG1 (antibody, V domains shown)
VH: B1 VH
VL: EIVLTQSPTTMAASPGEKITITCSASSSISSNYLHWYQQKAGFSPKLLIYRTSNLASGVPARFSGSGSGTSYSLTIGTMEAEDVATYYCQQGSSLPRTFGGGTKLEIKR
notes: Recombinant form with human IgG1 Fc
Turning to B2, the binding result in experiment [5] is recorded as “binds”. In experiment [1], the “IC50, final serum dilution” value worked out at 0.0977 mg/L; the “IC50, original serum dilution” value came out at 0.391 mg/L; the “hMPV/A RL Bx Titer (Log 2), microneutralization assay” value was 9 log2. In addition, the binding result in experiment [4] was “no binding”.

B3: 17D10 hIgG1 (antibody, V domains shown)
VH: QVQLQQPGAELVKPGASVKMSCKASGYTFTSYWITWVKQRPGQGLEWIGDIYPGSGSITYNEKFKTKATLTVDTSSSTAYMQLNSLTSEDSAVYYCAGLLRLTFDVWGTGTTVTVSS
VL: DIQLTQTTSSLSASLGDRVTISCRASQDISNYLNWYQQKPDGTVKLLISYTSGLHSGVPSRFSGSGSGTDYSLTISNLEQEDIATYFCQQGNTLPWTFGGGTKLEIKR
notes: Recombinant form with human IgG1 Fc; also called Human 17D10 mAB; 171D10 hIgG1
Take B3: in experiment [1], the “IC50, final serum dilution” value was determined as 0.0345 mg/L; the “IC50, original serum dilution” value was determined as 0.138 mg/L; the “hMPV/A RL Bx Titer (Log 2), microneutralization assay” value came to 10.5 log2. Further, the binding result in experiment [6] is “binds”. The binding result in experiment [7] is listed as “no binding”.

B4: 17E10 (antibody, mouse IgG1, V domains shown)
VH: B3 VH
VL: DIQLTQTTSSLSASLGDRVTISCRASQDISNYLNWYQQKPDGTVKLLISYTSGLHSGVPSRFSGSGSGTDYSLTISNLEQEDIATYFCQQGNTLPWTFGGGTKLEIK
As to B4, the “hMPV/A neutralization assay titer, supernatant” value in experiment [2] was above 5 log2.

B5: 17D10 (mouse) (antibody, V domains shown)
VH: B3 VH
VL: B4 VL
notes: Mouse IgG1 / kappa; also called Mouse 17D10 mAB; 17D10 mIgG
B5: in experiment [1], the “IC50, final serum dilution” value came out at 0.0488 mg/L; the “IC50, original serum dilution” value stood at 0.195 mg/L; the “hMPV/A RL Bx Titer (Log 2), microneutralization assay” value worked out at 10 log2. Moreover, in experiment [2], the “hMPV/A neutralization assay titer, supernatant” value is above 5 log2. In addition, the binding result in experiment [3] is “binds”. Also, the binding result in experiment [7] is recorded as “no binding”.

B6: 42C2 (mouse) (antibody, V domains shown)
VH: QVTLKESGPGILQPSQTLSLTCSFSGFSLSTFGMGVVWTRQPSGKGLEWLAHIWWDDDNYYNPALKSRLTISKDTSKNQVFLKIANADTADTATYYCARIVKVLEQYFDVWGTGTTVTVSS
VL: DIMMTQSHKFMSTSVGDRVIFTCKASQDVGTAVAWYQQKSGQSPKLLIYWASTRHTGVPDRFTGSGSGTDFTLTISNVQSEDLADYFCQQYTSYPLTFGAGTKLELK
notes: Mouse IgG1 / kappa; also called 42C2 mIgG; 42C2 mAB
As for B6, in experiment [1], the “IC50, final serum dilution” value is 0.0977 mg/L; the “IC50, original serum dilution” value was 0.391 mg/L; the “hMPV/A RL Bx Titer (Log 2), microneutralization assay” value turned out to be 9 log2. Moreover, in experiment [2], the “hMPV/A neutralization assay titer, supernatant” value is above 5 log2. Moreover, the binding result in experiment [3] was “binds”. The binding result in experiment [8] is “no binding”.

B7: 42C2 hIgG1 (antibody, V domains shown)
VH: B6 VH
VL: DIMMTQSHKFMSTSVGDRVIFTCKASQDVGTAVAWYQQKSGQSPKLLIYWASTRHTGVPDRFTGSGSGTDFTLTISNVQSEDLADYFCQQYTSYPLTFGAGTKLELKR
notes: as for B2
With B7, the binding result in experiment [5] is given as “binds”. Further, in experiment [1], the “IC50, final serum dilution” value is 0.0691 mg/L; the “IC50, original serum dilution” value turned out to be 0.276 mg/L; the “hMPV/A RL Bx Titer (Log 2), microneutralization assay” value amounted to 9.5 log2. In experiment [8], the binding result is listed as “no binding”.
